Patent US20230330249A1, “ANTIBODY-CONJUGATED CHEMICAL INDUCERS OF DEGRADATION OF BRM AND METHODS THEREOF” (Genentech, Inc., priority 2020, published 2023)
Changes are numbered by the printed parent chain. Names and notes keep the numbering of the source.

Tests used:
[1] = Lysosomal release assay; assay type: in vitro ADME, human; details: pH 5.5, 24 h; for Release in lysosomal extract: 10 μM linker-drug, human liver lysosomes 0.17 mg/mL, cysteine 5 mM, 37° C.
Source text: Lysosomal release assays were run to measure the release of the degrader from the L1 moeity in an environment that mimics intracellular milieu. For the degrader to be active at binding BRM and ferrying it to the ubiquitin ligase, the L1 must first be released.
The assay was run using an L1 bound to the BRM-binding compound, named “L1-BRM1-#” that corresponds to the respective CIDE. The test determine whether cleavage of the covalent attachment of the L1 to the BRM portion occurred. Linker-drugs ([…]) were incubated with human liver lysosomes (0.17 mg/mL) and cysteine (5 mM) in 100 mM citric acid buffer pH 5.5 for 24 h. The samples were analyzed by Q Exactive Orbitrap mass specrometers using LC mobile phase containing (A) 0.1% formic acid in water and (B) 0.1% formic acid in acetonitrile in a gradient.

[2] = biological target: T1, BRM (Homo sapiens, UniProt P51531); assay: Cell assay to determine DC50 and Dmax (nuclear BRM immunofluorescence), NCI-H1944 cells; assay type: cell-based; details: 24 h drug treatment, nuclear BRM signal
T1 construct: endogenous in cells; host or cells: HCC515
Procedure: (§1) Cell based assays were run in […] cell lines to determine the DC50 and Dmax of Ab-L1-CIDE. BJAB, HCC515 and H1944 cells were plated in 384 well plates at 5000, 4000 and 2500 cells/well, respectively. The next day Ab-CIDEs were added. Following 24 h of drug treatment the cells were fixed with 4% formaldehyde for 15 minutes. The plates were washed three time with PBS. The cells were incubated with IF blocking solution (10% FCS, 1% BSA, […] in PBS). After 1.5 h a 2× solution of primary antibody diluted in IF blocking buffer: BRM (Cell signaling Cat #11966, 1:2000) was added. The plates were incubated over night at 4° C. The following morning cells were washed three time with PBS. Cells were then incubated with secondary antibodies (rabbit-Alexa 488 A21206 (1:2000)) for 1 h at room temperature in the dark. Hoechst H3570 at 1:5000 was added to the wells and the plates were incubated for an additional 30 minutes. Plates were wash 3×PBS and image on Opera Phenix™ High Content Screening System. Using nuclear staining as a mask, nuclear BRM mean signal intensity was quantified.
(§2) The data evidence the successful antibody targeting strategies disclosed herein.

[3] = biological target: T1, BRM; assay: Cell assay to determine DC50 and Dmax (nuclear BRM immunofluorescence), HCC515 cells; assay type: cell-based; details: 24 h drug treatment, nuclear BRM signal
Procedure: as §1, §2

T1 sequence (P51531 whole entry): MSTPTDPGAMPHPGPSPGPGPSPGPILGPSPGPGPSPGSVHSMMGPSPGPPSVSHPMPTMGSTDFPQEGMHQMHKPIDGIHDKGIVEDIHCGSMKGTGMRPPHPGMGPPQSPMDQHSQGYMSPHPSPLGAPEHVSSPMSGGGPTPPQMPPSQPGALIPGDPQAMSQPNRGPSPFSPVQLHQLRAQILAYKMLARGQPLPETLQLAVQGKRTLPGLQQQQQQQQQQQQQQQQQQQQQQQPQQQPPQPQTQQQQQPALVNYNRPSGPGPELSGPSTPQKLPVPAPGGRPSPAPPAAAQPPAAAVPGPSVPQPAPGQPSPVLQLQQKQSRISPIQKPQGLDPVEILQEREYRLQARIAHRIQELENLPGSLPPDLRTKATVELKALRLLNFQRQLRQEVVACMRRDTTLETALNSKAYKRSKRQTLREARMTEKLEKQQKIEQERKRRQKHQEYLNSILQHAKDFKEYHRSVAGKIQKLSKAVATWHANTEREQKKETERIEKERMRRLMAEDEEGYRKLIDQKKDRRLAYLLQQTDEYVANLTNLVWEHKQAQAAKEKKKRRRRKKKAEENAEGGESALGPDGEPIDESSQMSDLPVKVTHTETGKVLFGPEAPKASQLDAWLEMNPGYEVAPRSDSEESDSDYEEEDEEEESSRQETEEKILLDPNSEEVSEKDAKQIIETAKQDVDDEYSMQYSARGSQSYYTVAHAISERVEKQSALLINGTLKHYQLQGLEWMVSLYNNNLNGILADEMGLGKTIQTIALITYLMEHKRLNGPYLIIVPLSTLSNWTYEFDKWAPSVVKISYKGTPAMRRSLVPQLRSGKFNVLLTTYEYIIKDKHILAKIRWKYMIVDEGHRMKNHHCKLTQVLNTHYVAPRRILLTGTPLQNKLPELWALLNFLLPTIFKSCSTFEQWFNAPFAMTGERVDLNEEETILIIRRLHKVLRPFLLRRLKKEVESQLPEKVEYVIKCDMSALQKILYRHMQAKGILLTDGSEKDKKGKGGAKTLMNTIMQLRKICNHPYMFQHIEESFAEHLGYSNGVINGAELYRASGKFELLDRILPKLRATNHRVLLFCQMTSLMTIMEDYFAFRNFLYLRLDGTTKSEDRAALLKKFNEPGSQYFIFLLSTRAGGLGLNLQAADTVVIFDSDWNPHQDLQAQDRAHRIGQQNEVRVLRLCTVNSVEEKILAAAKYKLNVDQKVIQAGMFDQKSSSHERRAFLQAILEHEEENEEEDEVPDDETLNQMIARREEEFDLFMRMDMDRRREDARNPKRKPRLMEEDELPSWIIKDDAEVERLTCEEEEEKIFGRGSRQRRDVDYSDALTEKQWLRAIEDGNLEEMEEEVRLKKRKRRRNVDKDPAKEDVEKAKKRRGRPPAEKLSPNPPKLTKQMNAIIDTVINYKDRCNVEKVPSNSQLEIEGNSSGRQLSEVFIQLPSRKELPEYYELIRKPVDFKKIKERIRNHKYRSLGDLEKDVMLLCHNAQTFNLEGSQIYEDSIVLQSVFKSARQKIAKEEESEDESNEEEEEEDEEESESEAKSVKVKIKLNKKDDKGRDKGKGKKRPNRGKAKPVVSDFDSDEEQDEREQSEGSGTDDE

Cc1ncsc1-c1ccc([C@H](C)NC(=O)[C@@H]2C[C@@H](OC(=O)OC(C)C(C)(C)SS(C)(=O)=O)CN2C(=O)[C@@H](c2cc(OCCN3CCN(CCOc4cc(N5C6CCC5CN(c5cc(-c7ccccc7OCOP(=O)(O)O)nnc5N)C6)ccn4)[C@H](C)C3)no2)C(C)C)cc1 (stereo partly shown) [L1-BRM1-9]
Release in lysosomal extract [1]: Yes (“Yes” indicates >50% free drug observed after 24 h incubation at 37 °C in lysosomal extract.)

Cc1ncsc1-c1ccc([C@H](C)NC(=O)[C@@H]2C[C@@H](O)CN2C(=O)[C@@H](c2cc(OCCN3CCN(CCOc4cc(N5C6CCC5CN(c5cc(-c7ccccc7OCc7ccc(NC(=O)[C@H](CCCNC(N)=O)NC(=O)C8(C(=O)NCCCCCN9C(=O)C=CC9=O)CCC8)cc7)nnc5N)C6)ccn4)[C@H](C)C3)no2)C(C)C)cc1 [L1-BRM1-13]
Release in lysosomal extract [1]: Yes (“Yes” indicates >50% free drug observed after 24 h incubation at 37 °C in lysosomal extract.)

Cc1ncsc1-c1ccc([C@H](C)NC(=O)[C@@H]2C[C@@H](O)CN2C(=O)[C@@H](c2cc(OCCN3CCN(CCOc4cc(N5C6CCC5CN(c5cc(-c7ccccc7O)nnc5NC(=O)OCc5ccc(NC(=O)[C@H](CCCNC(N)=O)NC(=O)C7(C(=O)NCCCCCN8C(=O)C=CC8=O)CCC7)cc5)C6)ccn4)[C@H](C)C3)no2)C(C)C)cc1 [L1-BRM1-20]
Release in lysosomal extract [1]: Yes (“Yes” indicates >50% free drug observed after 24 h incubation at 37 °C in lysosomal extract.)

Cc1ncsc1-c1ccc([C@H](C)NC(=O)[C@@H]2C[C@@H](O)CN2C(=O)[C@@H](c2cc(OCCN3CCN(CCOc4cc(N5C6CCC5CN(c5cc(-c7ccccc7OS(=O)(=O)Oc7cc(C(=O)NCCOCCOCCOCCn8cc(COCCOCCOCCOCCNC(=O)CCN9C(=O)C=CC9=O)nn8)ccc7O[C@@H]7O[C@H](CO)[C@H](O)[C@H](O)[C@H]7O)nnc5N)C6)ccn4)[C@H](C)C3)no2)C(C)C)cc1 [L1-CIDE-BRM1-15]
Release of the degrader in lysosomal extracts ([1]; human liver lysosomes): did not release the degrader

B1: Thio Hu Anti-TfR1.NG2LH.FcRn null high DAR [HC:L174C HC:Y373C LC:K149C] MC-sqCit BRM CIDE Ab-L1-CIDE-BRM1-13 (conjugate)
heavy: EVQLVQSGAEVKKPGASVKVSCKASGYTFTSYWMHWVRQAPGQRLEWIGEINPTNGRTNYIEKFKSRATLTVDKSASTAYMELSSLRSEDTAVYYCARGTRAYHYWGQGTMVTVSSASTKGPSVFPLAPSSKSTSGGTAALGCLVKDYFPEPVTVSWNSGALTSGVHTFPAVCQSSGLYSLSSVVTVPSSSLGTQTYICNVNHKPSNTKVDKKVEPKSCDKTHTCPPCPAPPVAGPSVFLFPPKPKDTLMISRTPEVTCVVVDVSHEDPEVKFNWYVDGVEVHNAKTKPREEQYGSTYRVVSVLTVLHQDWLNGKEYKCKVSNKALPAPIEKTISKAKGQPREPQVYTLPPSREEMTKNQVSLTCLVKGFCPSDIAVEWESNGQPENNYKTTPPVLDSDGSFFLYSKLTVDKSRWQQGNVFSCSVMHEALHNHYTQKSLSLSPGK
light: DIQMTQSPSSLSASVGDRVTITCRASDNLYSNLAWYQQKPGKSPKLLVYDATNLADGVPSRFSGSGSGTDYTLTISSLQPEDFATYYCQHFWGTPLTFGQGTKVEIKRTVAAPSVFIFPPSDEQLKSGTASVVCLLNNFYPREAKVQWCVDNALQSGNSQESVTEQDSKDSTYSLSSTLTLSKADYEKHKVYACEVTHQGLSSPVTKSFNRGEC
NCI-HI944 DC50 [2]: 0.07 µg/mL | NCI-HI944 Dmax [2]: 77

B2: Thio Hu Anti-TfR2.NG2LH high DAR [HC:L174C HC:Y373C LC:K149C] diMe Me disulfide BRM degrader phos Ab-L1-CIDE-BRM1-9 (conjugate)
heavy: B1 heavy
light: B1 light with W92A
NCI-HI944 DC50 [2]: 0.74 µg/mL | NCI-HI944 Dmax [2]: 94 | HCC515 DC50 [3]: 0.12 µg/mL | HCC515 Dmax [3]: 96
